Key:
Test in all cases: fluorescence polarisation; fluorescence anisotropy; β-catenin titrated into 10 nM fluorescein-labelled APC construct; PBS, 1 mM DTT; 15°C; adjusted anisotropy fitted to a Hill equation
[1] = molecular target: pAPCabc D1486S, fluorescein-labelled at Cys 1501 (UniProt P25054)
[2] = molecular target: APCabc with the flexible linker (FL) inserted between residues 1,478 and 1,479, fluorescein-labelled at Cys 1501 (UniProt P25054)
[3] = molecular target: APCabc with the flexible linker (FL) inserted between residues 1,500 and 1,501, fluorescein-labelled at Cys 1501 (UniProt P25054)
[4] = molecular target: pAPCabc with the flexible linker (FL) inserted between residues 1,500 and 1,501, fluorescein-labelled at Cys 1501 (UniProt P25054)
[5] = molecular target: pAPCabc with the polyproline linker (PP) inserted between residues 1,500 and 1,501, fluorescein-labelled at Cys 1501 (UniProt P25054)
[6] = molecular target: pAPCc, phospho domain c of APC R3 in the phosphomimetic form, fluorescein-labelled at Cys 1501 (UniProt P25054)
[7] = molecular target: APCabc with the rigid linker (RL) inserted between residues 1,500 and 1,501, fluorescein-labelled at Cys 1501 (UniProt P25054)
[8] = molecular target: APCbc, APC R3 subdomains b and c (residues 1,483–1,533), fluorescein-labelled at Cys 1501 (UniProt P25054)
[9] = molecular target: APCabc, third 20aa repeat (R3) region of APC with subdomains a, b and c, fluorescein-labelled at Cys 1501 (UniProt P25054)
[10] = molecular target: pAPCabc with the flexible linker (FL) inserted between residues 1,478 and 1,479, fluorescein-labelled at Cys 1501 (UniProt P25054)

armadillo (ARM) repeat domain of human β-catenin (residues 134–671), sequence (P35222 other isoform, or with tags, fused parts or gaps): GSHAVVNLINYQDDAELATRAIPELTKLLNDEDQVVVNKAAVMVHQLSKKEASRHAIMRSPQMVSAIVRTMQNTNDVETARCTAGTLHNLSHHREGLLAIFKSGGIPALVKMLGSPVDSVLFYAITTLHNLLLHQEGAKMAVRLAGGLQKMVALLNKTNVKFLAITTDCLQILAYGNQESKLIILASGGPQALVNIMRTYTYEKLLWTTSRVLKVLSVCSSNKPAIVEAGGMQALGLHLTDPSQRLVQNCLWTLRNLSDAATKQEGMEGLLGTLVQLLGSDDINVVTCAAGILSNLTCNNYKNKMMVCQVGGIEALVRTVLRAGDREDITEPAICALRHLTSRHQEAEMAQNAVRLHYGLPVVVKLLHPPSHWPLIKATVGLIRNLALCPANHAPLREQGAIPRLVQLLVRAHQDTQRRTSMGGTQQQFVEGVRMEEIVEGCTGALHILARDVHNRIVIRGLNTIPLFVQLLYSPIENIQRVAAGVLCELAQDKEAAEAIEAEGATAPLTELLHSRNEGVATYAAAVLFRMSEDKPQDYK

- Kd [1]: 21.4 nM
- Kd [2]: 21.5 nM
- Kd [3]: 28.3 nM
- Kd [4]: 10.9 nM
- Kd [5]: 16.4 nM
- Kd [6]: 160 nM
- Kd [7]: 31.2 nM
- Kd [8]: 196 nM
- Kd [9]: 16.5 nM
- Kd [10]: 18.7 nM
Substance: armadillo (ARM) repeat domain of human β-catenin (residues 134–671) (from UniProt P35222 134-671) (domain or fragment)

Source: paper PMC9214244, “Multivalent Interaction of Beta-Catenin With its Intrinsically Disordered Binding Partner Adenomatous Polyposis Coli” (Frontiers in Molecular Biosciences, 2022)
